# Measurements as given in the supplement of paper PMC10567573.
# ± gives the standard deviation.
# Assay: protein stability index of a GFP-peptide fusion (GPS, HEK-293T) (PSI 1-6); higher = more stable
# Conditions: c terminus: a fixed tail appended
# 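Note: 24-mer peptide tiles fused after GFP, lentivirally expressed, FACS-sorted into six equal bins by GFP/DsRed ratio, decoded by Illumina sequencing, PSI is the read-weighted mean bin number.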
Sequence,protein stability index (treatment: DMSO),"protein stability index (treatment: MLN4924 1 uM, 8 h)"
LFVIRGQPADVFPRLFKEWNITKL [CRY1],2.18 ± 0.29,2.24 ± 0.32
LGCNRQSWCLKRYDLEYWAFHDGQ [TRIM14],2.5 ± 0.34,2.34 ± 0.38
LGHREPSAHPVEVFSFDLHEPLSK [TMEM175],3.92 ± 0.16,4.17 ± 0.28
LGHSPVLRNITNSQAPDGRRKSEA [CDC25B],3.77 ± 0.4,4.22 ± 0.48
LGIPYYETSVVAQFGIKDVFDNAI [RHOBTB2],2.17 ± 0.18,2.14 ± 0.23
LGLFTLILTEPAQAQKCYRDLALV [INTS3],3.14 ± 0.36,2.79 ± 0.35
LGNGLLRKKTLVPGPPGSSRPVKG [FKBP8],3.94 ± 0.12,4.05 ± 0.47
LGPPLVRKRIHDSRVAGFNPALQL [TOR1AIP2],3.07 ± 0.28,3.03 ± 0.26
LGTELAERQGNGQQAMSLAILRVI [KCNA3],2.42 ± 0.19,2.52 ± 0.12
LGVFLDYEAGVLAFYDVTGGMSHL [TRIM14],2.83 ± 0.5,2.98 ± 0.82
LGVQTGGPGGRRAGEPGHSPADYL [DYRK1B],4.34 ± 0.38,4.3 ± 0.31
LHMSQRERTWPPPAMSPYWRTWMT [C22orf15],2.31 ± 0.24,2.56 ± 0.37
LIANIVHDGKPSEGSYRIHVLHHG [USP39],2.21 ± 0.2,2.19 ± 0.25
LIFLSNFPFSLLGLLALAIGLWGL [TSPAN10],3.21 ± 0.27,2.93 ± 0.25
LIPKTWYSAEQFCVSRNSHLTSVT [CD207],2.17 ± 0.32,2.19 ± 0.28
LITKNHSQEETSILRCWKCRKCIA [RNF180],2.48 ± 0.44,2.98 ± 0.58
LIVTSLLLLPGLNQHGIILKYIGM [ARL6IP1],–,3.15 ± 0.81
LKCEMNQMSGEPLDKLNFEAINFC [ACSBG2],2.92 ± 0.41,3.16 ± 0.31
LKDFTLNETVNSIFAQGAPRSSLA [ADAMTSL2],3.01 ± 0.17,3.26 ± 0.32
LKGYPSLMRSQSPKAQPQTWKSGK [TRIM29],3.88 ± 0.36,3.93 ± 0.22
LLAAGANVHATTATGDTALTYACE [ANKRD17],4.13 ± 0.2,3.9 ± 0.23
LLCLLHFSIVSVAAHLALLLLCGT [RTN2],3.19 ± 0.65,3.33 ± 0.3
LLLCGTISLRVYRKVLQAVHRGDG [RTN2],2.66 ± 0.37,2.36 ± 0.63

Sequence,protein stability index (treatment: DMSO),"protein stability index (treatment: MLN4924 1 uM, 8 h)"
LLLLFGVAGGLVACRVTELQQQPL [LRRC59],2.77 ± 0.2,3.46 ± 0.55
LLPIVPLSWLVWLLLLLLASLLPS [ADAMTS4],3.04 ± 0.33,3.17 ± 0.51
LLSKYCGYREDNIPQLEDVSNFLK [TPH1],2.41 ± 0.59,2.61 ± 0.57
LLVGGLPPGPDRLPSNLVQYYDDE [KLHL14],4.17 ± 0.25,4.04 ± 0.087
LMSSAVPMTPEDPSFWDCFCFTEE [AASDHPPT],3.98 ± 0.25,3.86 ± 0.23
LNILIQSLDWETFEQYCAWQLFLA [INTS3],3.04 ± 0.92,2.62 ± 0.12
LPEELRRLSGLSSVGHNWRKRMGT [C22orf15],2.99 ± 0.18,3.07 ± 0.22
LPESGLLSVLQIAQQDLAPDPDAW [FANCE],4.06 ± 0.19,4.01 ± 0.22
LPFVLAAAVSRKKKRRMGTYSLVP [EHMT1],2.34 ± 0.26,2.27 ± 0.24
LPPPSALKKGSKEKQADFLDKQMS [NFE2L1],4.89 ± 0.24,4.91 ± 0.29
LPQEDPSTSQGCAQPQGAPCCSSS [FEM1A],5.48 ± 0.12,5.37 ± 0.19
LQCAMEENCLSASAAQTDPTTGYR [LOXL2],3.59 ± 0.23,3.45 ± 0.29
LQDGRRKVHYLFPDGKEMAEEYDE [DPCD],4.7 ± 0.064,4.72 ± 0.37
LQQQPLCTSVNTIYDNAVQGLRRH [LRRC59],3.66 ± 0.091,3.83 ± 0.13
LQRWCRAKHMGLEPPPEVWQVLKT [POLD4],2.28 ± 0.056,2.56 ± 0.14
LQSSKNSYSFQNPSSFDPSMLLQR [RNF180],2.9 ± 0.27,3.3 ± 0.17
LQTVTREKEELLQLSIERGKVLQN [CCDC89],4.13 ± 0.25,4.42 ± 0.26
LRCKLAAFYRLADLFGWSQLIYNH [ADD1],2.89 ± 0.49,2.78 ± 0.37
LRITSGVVVCQCGLSIPSHSSELT [RPAIN],2.56 ± 0.65,2.48 ± 0.57
LRNKLRELCVKLMFLHPVDYGRKA [SMG5],3.21 ± 0.36,3.03 ± 0.51
LRYSVVEESEPGTLVGNVAQDLGL [PCDHGC5],3.94 ± 0.13,3.86 ± 0.26
LSKILAKLERLKQQNEDLRRMAES [FUT8],2.9 ± 0.22,3.12 ± 0.24
